{"source": "the DeepSol protein solubility set", "data": [{"assay": "soluble on expression in E. coli; label from the status in PepcDB or PDB records", "values": [{"sequence": "MGGSHHHHHHGMASALANEEDDPVVQEIDVYLAKSLAEKLYLFQYPVRPASMTYDDIPHLSAKIKPKQQKVELEMAIDTLNPNYCRSKGEQIALNVDGACADETSTYSSKLMDKQTFCSSQTTSNTSRYAAALYRQGELHLTPLHGILQLRPSFSYLDKADAKHREREAANEAGDSSQDEAEDDVKQITVRFSRPESEQARQRRVQSYEFLQKKHAEEPWVHLHYYGLRDSRSEHERQYLLCPGSSGVENTELVKSPSEYLMMLMPPSQEEEKDKPVAPSNVLSMAQLRTLPLADQIKILMKNVKVMPFANLMSLLGPSIDSVAVLRGIQKVAMLVQGNWVVKSDILYPKDSSSPHSGVPAEVLCRGRDFVMWKFTQSRWVVRKEVATVTKLCAEDVKDFLEHMAVVRINKGWEFILPYDGEFIKKHPDVVQRQHMLWTGIQAKLEKVYNLVKETMPKKPDAQSGPAGLVCGDQRIQVAKTKAQQNHALLERELQRRKEQLRVPAVPPGVRIKEEPVSEEGEEDEEQEAEEEPMDTSPSGLHSKLANGLPLGRAAGTDSFNGHPPQGCASTPVARELKAFVEATFQRQFVLTLSELKRLFNLHLASLPPGHTLFSGISDRMLQDTVLAAGCKQILVPFPPQTAASPDEQKVFALWESGDMSDQDCCVSYGGMWYLKGTVQS", "soluble on expression in E. coli": "not soluble"}, {"sequence": "MNTAVKAAVAAALVMGVSSFANAAGSNTGTVTFTGTIEDSPCSIVVGDEHQTVNLGHIGTGSLMGGKESSKVDFHIGLENCAFTTEKEASTVFSAIGNESSANPGSVALMRIGGGEMAGSSIVIGNHLGSAIKLGDAYSENLTMNGSVAAAKQTLNFKAWVKGDSAATTIDTGEFSSTVNFTISYL", "soluble on expression in E. coli": "not soluble"}, {"sequence": "MSTGRTAITQPLRRLMRCSRALRRGTWPCSIGLQGIPIKSTPLQLRSCAQRLTFPGTSTGFLWEVWAMSYLRYVKIIGTVHVSPESVREVRETIIREKPDAIALELDYPRLLALLRRERLTLPQALKLGKMGIFGFILQELEMFFGRSFGESPGEEMIEAYKAAASLGIPVYLIDKPVNETLAGMLSSPPIEKLRFGIEVLASLLPGKLKELDYSYLMKEFREKFPHMYKVLVEERNLYMAINLMRIVDSLLEKKKKVKVVAVVGLGHKKGIERILNAHKPRAVKINSL", "soluble on expression in E. coli": "not soluble"}, {"sequence": "GSPPWRGRREQCLLPPEDSRLWQYLLSRSMREHPALRSLRLLTLEQPQGDSMMTCEQAQLLANLARLIQAKKALDLGTFTGYSALALALALPADGRVVTCEVDAQPPELGRPLWRQAEAEHKIDLRLKPALETLDELLAAGEAGTFDVAVVDADKENCSAYYERCLQLLRPGGILAVLRVLWRGKVLQPPKGDVAAECVRNLNERIRRDVRVYISLLPLGDGLTLAFKI", "soluble on expression in E. coli": "soluble"}, {"sequence": "MGSDKIHHHHHHMAQQDRLQQMREWIKTTPEISLDQLMGEYRISRDTARRDLIQLEREGKIIRVKNGLIRVGTNTTIQYDRRTEQPEKNRIAKHAVRYVQPDQTIILDAASTVARMTVHLPAQPIQIITNALAVVEQLEARPEIDLYVTGGKWDRHARSLVGIKTADDILNYQVDRVFLGACGLTEQGVFAENLEEAIVKKAMIRSSAEVIVLADHTKFEKRFLHKVCDLDQIDILITDERPTEQWQKWLQEADILLETAEEE", "soluble on expression in E. coli": "not soluble"}, {"sequence": "SRMNPTIMVPGSEATQERFNETLASLNKQGKKHSILKLTVHKDNSISYSGQIAASDNRPYIVVAFADNKDSYTTIKKQAKWLDHALDELQKKYHFKNFNAIGHSNGGLDWTVYLENYYAKENFHLNTLMTIGTPYNFEVVNSSNHTQMLQDLIAAKDALPDDLTVYNVAGTNSYDGDYIVPITSVETGKYIFQKTIKQYTQITVTGNEAEHSDLPTNKEVLDLISENILNNNRKKVDPKNQN", "soluble on expression in E. coli": "not soluble"}, {"sequence": "AASDSAQLKSAREDIKELLKTKFCHPIMVRLGWHDAGTYNKNIEEWPQRGGANGSLRFDVELKHGANAGLVNALNLLKPIKDKYSGVTYADLFQLASATAIEEAGGPKIPMKYGRVDVTEPEQCPEEGRLPDAGPPSPAQHLRDVFYRMGLNDKEIVALSGAHTLGRSRPDRSGWGKPETKYTKDGPGAPGGQSWTAQWLKFDNSYFKDIKERRDEDLLVLPTDAALFEDPSFKVYAEKYAADPEAFFKDYAEAHAKLSNLGAKFGPAEGFSLEGSPAGAAPEKFVAAKYSTGKD", "soluble on expression in E. coli": "soluble"}, {"sequence": "MAAAKIKKGDTVLVVRGKEKGKQGKVLKVYERVKRRDKQGNPVYVRHFVIVEGVRLIKKHVKPIEGVREGGIIETEGPIDISNVMLICPNCNKPTRVGFRIVEEGNVRRKYRYCKKCNENIDLVSEKVIKGG", "soluble on expression in E. coli": "soluble"}, {"sequence": "MKDLIIIGAGQAGLTMGYYLKQEGYNFLLLEAGKRVGDSWRNRYDSLQLFTPRSYSSLPGMALIGEKNEFPYKDEIATYLEEYARHFQLPVQLQTEVLKIKKEKEIFELHTPTEILQTKKVIIASGAFQQPFIPSVSANLSSHIFQIHSSQYKSPSQIPKGKVLVVGGGNSGMQIAVELAKTHEVTVSISHPLTFLPLQLFGKSIFNLLEKVGLLYAEINTKRGRWFQKRKDPIFGFEGKKLIRNGAIKLQEKVVSASRNNIMFQNGDTYSAESIIWSTGFVQNYNWIEIEQAVNEKGFPNHIKGISPVKGLYYIGLPWQSQRGSALICGVGKDAEYVLSEIKKIDQLEHHHHHH", "soluble on expression in E. coli": "soluble"}, {"sequence": "MSLSGEPYNFEYTFSKSHDIGVSLTIGKRNYMEDEVLIAGNIKEGIDLVGIFDGHNGSDAAKLAAKLFKEEIKHLEEEFDWITLFEKVHSTIIKSTESGTTATLALIYSNKITLVHCGDSTAFALKKRKLKKLTHDQNTSSLEEVSSIKKNGGVVEFNGGILRVNGQISVTRSLGDKKFHPPLTCIPEVIELESDDITSLVLTSDGISSVLQLDEIEAVMNSEMNVEEKSSTLRNQSFIREGKDNMSVIVVSFNEGHHHHHH", "soluble on expression in E. coli": "soluble"}, {"sequence": "MGSDKIHHHHHHMLRGINRQIIFEDDEDYQNFMGTIKETQEKSGYEVYAYCLMSNHVHLLLKEVTEDLGIAFRRIGAIYVYWYNWKYSRRGHLFQARYKSEAVETDSYFLTVLRYIHQNPYKAGIVKNIADYPWSSYGEYVGEPRICDVEFGLNMFSTNRTNAVKLFEEFNLAENQDQCLDYNQDVRLNDTEASNFIRSISDVQSPTEIQGFEKDKRNEVIKKCKSKGLSIRQIERLTGVSFGVIRTI", "soluble on expression in E. coli": "not soluble"}, {"sequence": "EWVAPTLSQKAENIKAAAINGKISTGNTGLWLKEKNSIINVREMLPDHTLLGIKIWARNDKNELAEAVEADSAVLNSDGSWQLKNIRRSTLGEDKVEVSIAAEENWPISVKRNLMDVLLVKPDQMSVGELTTYIRHLQNNSQNTRIYAIAWWRK", "soluble on expression in E. coli": "not soluble"}, {"sequence": "STTALCRMNMILHNSATADIAKGGSSTLSNPLFTTENGMLKTFDYVVANPPFS", "soluble on expression in E. coli": "not soluble"}, {"sequence": "MSLKVLLLDVDGTLLSFETHKVSQSSIDALKKVHDSGIKIVIATGRAASDLHEIDAVPYDGVIALNGAECVLRDGSVIRKVAIPAQDFRKSMELAREFDFAVALELNEGVFVNRLTPTVEQIAGIVEHPVPPVVDIEEMFERKECCQLCFYFDEEAEQKVMPLLSGLSATRWHPLFADVNVAGTSKATGLSLFADYYRVKVSEIMACGDGGNDIPMLKAAGIGVAMGNASEKVQSVADFVTDTVDNSGLYKALKHFGVIEGHHHHHH", "soluble on expression in E. coli": "soluble"}, {"sequence": "GPGSMQEIIDTVNRYTLRSAAFRDKPTPGLAARQFLCSLLLHRKLDSIRLSSIARYMFSTEALIAVSRDGIQTISCEGNTLWPICTIPNGLTSEISGVAVTPEGTLVCSSNGICYLEGENLRVAEDCASSSYAQNVLCISCTPDGRYIATGGGTATVTVWTSDLKPLHHFAGHTDWVRFVKFARGRSPALQLFSTGDDGVICQWDVLAGSLISRVDYSLGESIQLFEVSYYSGLMAISSGTSLIALYCPQSDNTTRAVGEDVLRLQPMALITGAHEYTPTAGKFTDDSQWLASASEDETIALTYVLDPQTCFVCKKFVTRRRCFSFMNIFNSICILAAPPVSSVIVIAACSSDGTVVQWVVDPRTNRASYTKKLQLHLGSFLGMDLIPGDDLNHLL", "soluble on expression in E. coli": "not soluble"}, {"sequence": "MGSDKIHHHHHHMSEALNVDIQEIAKFEKMAATWWDPDGEFKPLHQLNPLRLNYIDQTSGGLFGKKVLDVGCGGGILSESMARLGANVTGIDMGNEPLEVARLHALETGVSLNYERCTAEEHREVNREAYDVVTCMEMLEHVPDPLSVIAACCDMVKPGGYVFFSTINRNLRSYVETILGAEYLLKMLPVGTHDHGKFIRPSELIAMVDQTELLCKDATGVTYNPITGTFRYTSSVEVNYMIATVKPLE", "soluble on expression in E. coli": "not soluble"}, {"sequence": "MARSRGSSRPISRSRPTQTRSASTMAAPVHPQQQQQPNAYSHPPAAGAQTRQPGMFAQMASTAAGVAVGSTIGHTLGAGITGMFSGSGSDSAPVEQQQQNMANTSGQTQTDQQLGRTCEIDARNFTRCLDENNGNFQICDYYLQQLKACQEAARQY", "soluble on expression in E. coli": "soluble"}, {"sequence": "MITVFGLKSKLAPRREKLAEVIYNSLHLGLDIPKGKHAIRFLCLEKEDFYYPFDRSDDYTVIEINLMAGRMEGTKKRLIKMLFSELEYKLGIRAHDVEITIKEQPAHCWGFRGMTGDEARDLDYDIYV", "soluble on expression in E. coli": "soluble"}, {"sequence": "MSLSRVFVIGAAGKVGQRLIKKLGDGGHEVIALHRKEEQSVLIKAAGALPLLANLVEMDAAALSSAMAGSDVVVFTAGAGGAGIELTNAIDGEGLKTSVAAAELAGVRRFLLVSAFPEAARGTDTSAGFENYMRVKKHADVCLASSELDWVILRPGTLVDSAGSGQVRAGLAIPYGDIPRDDVAAFLAALVDQPEISRQIIELTEGTTPVELAIKALGTREGHHHHHH", "soluble on expression in E. coli": "soluble"}, {"sequence": "MRARSDAGGQSVKSRTSNRSRSSRRSRVRSSISALVDNPQARPRELPVLCGWPVVRVEPVCEFVPEPVCGQAEVLGEPAAAHRVTSARRSPSTTVCSRSQKASAVVISSVSSVARVRRASVSSVDATTA", "soluble on expression in E. coli": "not soluble"}, {"sequence": "MTSRRLEESMGAVQMGLVNMFKGFQSKVLPPLSPKVVTEEEVNRMLTPSEFLKEMSLTTEQRLAKTRLMCRPQIIELLDMGETTHQKFSGIDLDQALFQPFPSEIIFQNYTPCEVYEVPLILRNNDKIPRLVKVVEESSPYFKVISPKDIGHKVAPGVPSIFRILFTPEENKDYAHTLTCVTEREKFIVPIKARGARAILDFPDKLNFSTCPVKYSTQKILLVRNIGNKNAVFHIKTCRPFSIEPAIGTLNVGESMQLEVEFEPQSVGDHSGRLIVCYDTGEKVFVSLYGAAIDMNIRLDKNSLTIEKTYISMANQRTITIHNRSNIIAHFLWKVFATQQEEDREKYRACDDLIKEEKDETDEFFEECITDPLLREHLSVLSRTFANQRRLVQGDSKLFFNNVFTVEPLEGDVWPNSSAEITVYFNPLEAKLYQQTIYCDILGREIRLPLRIKGEGMGPKIHFNFELLDIGKVFTGSAHCYEAILYNKGSIDALFNMTPPTSALGACFVFSPKEGIIEPSGVQAIQISFSSIILGNFEEEFLVNVNGSPEPVKLTIRGCVIGPTFHFNVPALHFGDVSFGFPHTLICSLNNTSLIPMTYKLRIPGDGLGHKSISYCEQHVDYKRPSWTKEEISSMKPKEFTISPDCGTIRPQGFAAIRVTLCSNTVQKYELALVVDVEGIGEEVLALLITARYCSPACSSPESPPSLQ", "soluble on expression in E. coli": "soluble"}, {"sequence": "MTENVNSSGDSAIKSEDKEEVTVIQEGQAKVGFHGPVFYNPVQEFNRDLTVTVLRQFSADHQKWAEEQKQLKTEEEPPKKKNKLAINEDGKIRILDALSASGLRALRFSKEVPNVGFIMANDFSDNAVASIQENVKLNGVEDIVEAHFGDAVMTMMEHRGIDKRFHAVDLDPYGTASTFLDSAVQCVADRGILMVTCTDMAVLCGNTPEACYNKYDAVTTRMKCCHEVGLRILLRAIDSAANRYTRYIEPLVSISVDFYVRVFVRVHTGAFQAKQSGTKVGTVLVCSGCHSMEPLVLLKRGEGNQQSKYSIPTVRHSISGPGNRCIHCLLPLHQIGPIYLAPIHSKPFVTSLLERLKSTPEAERLGTHGRLQGVLTMVNEELDDVLYYEHNQMANVVKVSVPKSQSVRSAILNAGFKVSGSHCNPRAIKTNAPMHLLWDIYRQVAKDTSVDREKRLAKESAGYHILGQPITNTVNFTLHPGAIEQAKKENLVRFQCNKGKNWGPRQKAKGSVNSTKAGFQLTEHKE", "soluble on expression in E. coli": "not soluble"}]}]}
